As a reminder, the EC50 is the concentration that produces a half-maximal response.

Holding throughout (test): EC50 of free RNA motif oligo competing protein binding to immobilised probe
The target of series [1] is GPATCH11 (UniProt Q8N954). In short, it runs like this:
(§1)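 HEK293-FT lysate (2.5 mg protein/well) was treated with free RNA oligos (0 nM to 30 μM) for 1 h at 4°C, then with the same oligos on NHS-Sepharose beads for 30 min at 4°C. Bound proteins were quantified by label-free LC-MS/MS relative to the control. EC50 came from a four-parameter log-logistic fit, and Kd is EC50 times a protein-dependent depletion factor.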

The target of series [2] is T1, HNRNPF (UniProt P52597).
T1 sequence: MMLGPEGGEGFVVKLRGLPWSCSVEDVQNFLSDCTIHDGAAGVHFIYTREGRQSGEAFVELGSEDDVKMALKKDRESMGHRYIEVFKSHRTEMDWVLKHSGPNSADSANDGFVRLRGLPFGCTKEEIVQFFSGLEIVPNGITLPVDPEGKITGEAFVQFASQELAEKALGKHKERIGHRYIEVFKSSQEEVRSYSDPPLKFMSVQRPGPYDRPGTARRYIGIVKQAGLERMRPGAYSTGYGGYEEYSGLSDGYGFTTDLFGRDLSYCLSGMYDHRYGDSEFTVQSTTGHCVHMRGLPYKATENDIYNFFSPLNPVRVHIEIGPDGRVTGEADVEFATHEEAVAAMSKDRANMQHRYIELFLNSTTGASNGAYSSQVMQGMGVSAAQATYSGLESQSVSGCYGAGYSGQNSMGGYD
In outline:
as §1

Series [3] has as its target ICT1 (UniProt Q14197). In outline: as §1
For series [4], the target named is IGF2BP3 (UniProt O00425). In short, it runs like this:
as §1

Series [5] has as its target RPS14 (UniProt P62263). In short, it runs like this:
as §1

The target of series [6] is T2, CSTF2T (UniProt Q9H0L4).
T2 sequence: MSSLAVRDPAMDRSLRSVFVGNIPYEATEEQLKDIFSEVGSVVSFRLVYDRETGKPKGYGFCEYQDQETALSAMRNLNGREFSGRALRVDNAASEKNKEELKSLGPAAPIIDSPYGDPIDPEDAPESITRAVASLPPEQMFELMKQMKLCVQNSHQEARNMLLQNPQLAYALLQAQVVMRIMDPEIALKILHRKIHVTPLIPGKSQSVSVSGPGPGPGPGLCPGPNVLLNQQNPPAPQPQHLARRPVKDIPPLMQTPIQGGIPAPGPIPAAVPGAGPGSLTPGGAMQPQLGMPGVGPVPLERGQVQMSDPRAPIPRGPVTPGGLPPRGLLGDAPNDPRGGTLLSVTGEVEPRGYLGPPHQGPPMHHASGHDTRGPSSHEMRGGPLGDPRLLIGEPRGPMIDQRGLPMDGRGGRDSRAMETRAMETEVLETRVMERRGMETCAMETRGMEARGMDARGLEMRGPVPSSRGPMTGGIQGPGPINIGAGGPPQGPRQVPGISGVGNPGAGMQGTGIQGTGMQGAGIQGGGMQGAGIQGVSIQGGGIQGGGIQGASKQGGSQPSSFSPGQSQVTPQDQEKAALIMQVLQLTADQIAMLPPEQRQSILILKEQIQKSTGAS
In outline: as §1

The target of series [7] is MRPS23 (UniProt Q9Y3D9). In short, it runs like this: as §1
For series [8], the target named is MRPS9 (UniProt P82933). In outline: as §1
The target in series [9] is T3, ZFP36L1 (UniProt Q07352).
T3 sequence: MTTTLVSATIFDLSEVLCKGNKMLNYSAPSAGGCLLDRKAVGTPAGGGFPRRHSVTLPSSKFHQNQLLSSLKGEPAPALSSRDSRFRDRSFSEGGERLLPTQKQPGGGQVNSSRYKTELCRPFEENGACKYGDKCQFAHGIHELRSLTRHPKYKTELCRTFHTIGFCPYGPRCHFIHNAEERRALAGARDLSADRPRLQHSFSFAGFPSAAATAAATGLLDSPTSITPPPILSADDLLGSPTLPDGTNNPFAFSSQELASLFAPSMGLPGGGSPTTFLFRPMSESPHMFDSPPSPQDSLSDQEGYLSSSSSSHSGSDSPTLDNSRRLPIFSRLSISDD
In short, it runs like this: as §1

Sequence of IGF2BP3 (O00425 whole entry): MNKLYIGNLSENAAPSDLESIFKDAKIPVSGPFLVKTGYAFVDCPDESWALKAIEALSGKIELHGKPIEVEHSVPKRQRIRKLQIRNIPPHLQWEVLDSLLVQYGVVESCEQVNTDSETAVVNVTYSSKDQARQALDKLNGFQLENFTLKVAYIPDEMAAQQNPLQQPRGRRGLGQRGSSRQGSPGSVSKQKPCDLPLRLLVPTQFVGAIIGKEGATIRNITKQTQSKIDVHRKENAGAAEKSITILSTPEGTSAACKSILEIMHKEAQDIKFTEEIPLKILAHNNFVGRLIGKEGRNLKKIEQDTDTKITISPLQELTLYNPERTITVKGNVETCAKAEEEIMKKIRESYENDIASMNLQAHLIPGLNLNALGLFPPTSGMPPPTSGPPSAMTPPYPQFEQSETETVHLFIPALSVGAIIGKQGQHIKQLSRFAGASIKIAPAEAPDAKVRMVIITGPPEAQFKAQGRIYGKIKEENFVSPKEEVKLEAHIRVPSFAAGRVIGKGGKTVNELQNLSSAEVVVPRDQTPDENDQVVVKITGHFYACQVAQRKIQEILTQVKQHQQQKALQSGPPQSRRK
Sequence of GPATCH11 (Q8N954 whole entry): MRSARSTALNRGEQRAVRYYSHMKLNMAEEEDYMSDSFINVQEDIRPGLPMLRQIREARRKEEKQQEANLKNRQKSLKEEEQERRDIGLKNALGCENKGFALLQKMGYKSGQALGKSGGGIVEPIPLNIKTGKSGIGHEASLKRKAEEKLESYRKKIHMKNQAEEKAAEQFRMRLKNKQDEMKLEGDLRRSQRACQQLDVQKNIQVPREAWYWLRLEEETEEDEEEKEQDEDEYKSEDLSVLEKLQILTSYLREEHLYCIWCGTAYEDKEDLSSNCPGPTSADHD

On to AAUAAA, for which the EC50 in series [1] was found to be 122 nM; in series [2] it was 6120 nM.
CUGUCCU: the EC50 in series [3] was determined as 125 nM; in [4] it was 3770 nM; in [5] it was 180 nM.
On to UAUUUAU, for which the EC50 in series [6] was found to be 357 nM; in [7] it was 40 nM; in series [8], 29.4 nM; in series [9] it was 73.9 nM.

For the origin of these results see the supplement of paper PMC6379048.
